The chains are these.
B1: PBXIP1 (parent)
chain: LPVETLGPASRMDPESERALQAPH
B2: CDC14A (parent)
chain: GPHPKSKIENGYPLHAPEAYFPYF
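Further: lentivirally expressed fusions sorted by FACS into six bins by GFP to DsRed ratio, PSI derived from sequencing read proportions per bin multiplied by bin number.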

In one data set the parent is B1. In words: protein stability index of a GFP-peptide fusion (GPS, HEK-293T) (PSI 1-6); higher = more stable. Particulars: c terminus: a fixed tail appended.
As for LPVETLGPASRMDPESEAALQAPH [R18A], the protein stability index stood at 4.57.

As to LPVETLGPASRMDPESENALQAPH [R18N], the protein stability index was found to be 4.62.

Turning to LPVETLGPASRMDPESERALQAPP [H24P], the protein stability index is 4.03. For the variant LPVETLGPASRMDPESERALQAPD [H24D], the protein stability index is 4.75. For LPVETLGPASRMDPESERALQAPI [H24I], the protein stability index was 3.72.

Regarding LPVETLGPASRMDPESERALQAPC [H24C], the protein stability index turned out to be 4.05.

With LPVETLGPAIRMDPESERALQAPH [S10I], the protein stability index is 3.95. Same read-out and setting: for LPVETLGPARRMDPESERALQAPH [S10R] the value was 4.99; for LPVETLGPADRMDPESERALQAPH [S10D], 4.92; for LPVETLGPATRMDPESERALQAPH [S10T], 4.78. On the same count and under the same terms, for LPVETLGPANRMDPESERALQAPH [S10N] the value was 5.01; for LPVETLGPAWRMDPESERALQAPH [S10W], 4.4. Same read-out and setting: the result for LPVETLGPASRWDPESERALQAPH [M12W] reads 4.17. With LPVETLGPASRADPESERALQAPH [M12A], the protein stability index came out at 4.31. The same measure, in the same setting: the result for LPVETLGPASRKDPESERALQAPH [M12K] reads 5.34; that for LPVETLGPASRDDPESERALQAPH [M12D], 4.95. Regarding LPVETLGPASRYDPESERALQAPH [M12Y], the protein stability index came out at 4.09. On the same count and under the same terms, the result for LPVETLGPASRRDPESERALQAPH [M12R] reads 4.33; that for LPVETLGPASRSDPESERALQAPH [M12S], 4.11; that for LPVETLGPASRGDPESERALQAPH [M12G], 4.4. The same measure, in the same setting: the result for LPVETLGPASRPDPESERALQAPH [M12P] reads 4.35; that for LPVETLGPWSRMDPESERALQAPH [A9W], 4.42; that for LPVETLGPHSRMDPESERALQAPH [A9H], 4.91. Still for that read-out and setting: for LPVETLGPESRMDPESERALQAPH [A9E] the value was 4.56; for LPVETLGPASRMDPESERALQEPH [A22E], 4.68; for LPVETLGPASRMDPESERALQNPH [A22N], 4.5.

Consider LPVETLGPASRMDPESERALQFPH [A22F], for which the protein stability index came out at 4.01. The same measure, in the same setting: for LPVETLGPASRMDPESERALQTPH [A22T] the value was 4.7.

Turning to LPVETLGPASRMDPESERALQVPH [A22V], the protein stability index amounted to 4.2. As to LPVETLGPASRMDPESERALQRPH [A22R], the protein stability index was 4.78. On the same count and under the same terms, for LPVETLGPASRMDPESERALQDPH [A22D] the value was 4.7.

On to LPVETLGPASRMDPESERALQWPH [A22W], for which the protein stability index was determined as 3.25. For LPVETLSPASRMDPESERALQAPH [G7S], the protein stability index is 5.42. Same read-out and setting: for LPVETLHPASRMDPESERALQAPH [G7H] the value was 4.54; for LPVETLEPASRMDPESERALQAPH [G7E], 5.51; for LPVETLFPASRMDPESERALQAPH [G7F], 4.62.

Take LPVETLWPASRMDPESERALQAPH [G7W]: the protein stability index came out at 4.63.

A further data set covers variants of B2. Described as above. Particulars: c terminus: a fixed tail appended.
For the variant GPHPKSKIENGYPLTAPEAYFPYF [H15T], the protein stability index was 2.74. Same read-out and setting: the result for GPHPKSKIENGYPLFAPEAYFPYF [H15F] reads 1.7; that for GPHPKSKIENGYPLRAPEAYFPYF [H15R], 2.29; that for GPHPKSKIENGYPLGAPEAYFPYF [H15G], 2.59. Same read-out and setting: for GPHPKSEIENGYPLHAPEAYFPYF [K7E] the value was 2.27. On the same count and under the same terms, for GPHPKSNIENGYPLHAPEAYFPYF [K7N] the value was 2.57.

Turning to GPHPKSMIENGYPLHAPEAYFPYF [K7M], the protein stability index was 1.91. Still for that read-out and setting: for GPHPKSKIENGYPLHAPEAYFPKF [Y23K] the value was 3.13; for GPHPKSKIENGYPLHAPEAYFPHF [Y23H], 2.97. The same measure, in the same setting: for GPHPVSKIENGYPLHAPEAYFPYF [K5V] the value was 1.92; for GPHPMSKIENGYPLHAPEAYFPYF [K5M], 1.87. On the same count and under the same terms, for GPHPFSKIENGYPLHAPEAYFPYF [K5F] the value was 1.29; for GPHPKSKIEMGYPLHAPEAYFPYF [N10M], 2.31; for GPHPKSKIEHGYPLHAPEAYFPYF [N10H], 2.57.

As for GPHPKSKIETGYPLHAPEAYFPYF [N10T], the protein stability index was determined as 1.82.

On to GPHPKSKIECGYPLHAPEAYFPYF [N10C], for which the protein stability index was determined as 2.05.

For the variant GPHPKSKIEIGYPLHAPEAYFPYF [N10I], the protein stability index is 1.63. Same read-out and setting: the result for GPHPKSKIENGSPLHAPEAYFPYF [Y12S] reads 2.73; that for GPHPKSKIENGHPLHAPEAYFPYF [Y12H], 2.99. The same measure, in the same setting: the result for GPHPKSKIENGYELHAPEAYFPYF [P13E] reads 2.94; that for GPHPKSKIENGYYLHAPEAYFPYF [P13Y], 1.88; that for GPHPKSKIENGYPLHAIEAYFPYF [P17I], 2.06.

As to GPHPKSKIENGYPLHYPEAYFPYF [A16Y], the protein stability index worked out at 2.29.

As for GPHPKSKIENGYPLHTPEAYFPYF [A16T], the protein stability index stood at 2.41. Still for that read-out and setting: for GPHPKSKIENGYPLHSPEAYFPYF [A16S] the value was 2.14; for GPHPKSKIENGYPLHAPEAYQPYF [F21Q], 2.85; for GPHPKSKIENGYPLHAPEAYRPYF [F21R], 2.94. Same read-out and setting: the result for GPHPKSKIENGYPLHAPEAYKPYF [F21K] reads 3.05; that for GPHPKSKIENGYPLHAPEAYIPYF [F21I], 2.17; that for GPHPKSKIENGYPLHAPEAYWPYF [F21W], 2.71. As for GPHPKSKIENGYPLHAPEAYFPYG [F24G], the protein stability index came out at 3.09.

Turning to GPKPKSKIENGYPLHAPEAYFPYF [H3K], the protein stability index is 2.46. GPHPKSKIWNGYPLHAPEAYFPYF [E9W]: the protein stability index worked out at 1.77.

On to GPHPKSKIPNGYPLHAPEAYFPYF [E9P], for which the protein stability index was 1.69. On to GPHPKSKIFNGYPLHAPEAYFPYF [E9F], for which the protein stability index came to 1.77. The same measure, in the same setting: the result for GPHPKSKIENGYPLHAPEAIFPYF [Y20I] reads 2.57; that for GPHPKSKIENGYPLHAPEAVFPYF [Y20V], 2.55.

In the case of GPHPKSKIENGYPLHAPEAHFPYF [Y20H], the protein stability index turned out to be 2.71.

With GPHPKSKIENGYPLHAPEAGFPYF [Y20G], the protein stability index stood at 3.25. The same measure, in the same setting: for GGHPKSKIENGYPLHAPEAYFPYF [P2G] the value was 1.74; for GNHPKSKIENGYPLHAPEAYFPYF [P2N], 2.1; for GPHPKSKIENWYPLHAPEAYFPYF [G11W], 1.55. Still for that read-out and setting: for GPHPKSKIENDYPLHAPEAYFPYF [G11D] the value was 2.85; for GPHPKSKIENVYPLHAPEAYFPYF [G11V], 2.03; for WPHPKSKIENGYPLHAPEAYFPYF [G1W], 1.73.

Consider DPHPKSKIENGYPLHAPEAYFPYF [G1D], for which the protein stability index stood at 2.51. On the same count and under the same terms, the result for GPHPKSKIENGYPTHAPEAYFPYF [L14T] reads 2.45; that for GPHPKSKIENGYPHHAPEAYFPYF [L14H], 2.68.

Regarding GPHVKSKIENGYPLHAPEAYFPYF [P4V], the protein stability index was determined as 2.84. Still for that read-out and setting: the result for GPHQKSKIENGYPLHAPEAYFPYF [P4Q] reads 2.23. On the same count and under the same terms, the result for GPHCKSKIENGYPLHAPEAYFPYF [P4C] reads 2.27; that for GPHIKSKIENGYPLHAPEAYFPYF [P4I], 1.91. The same measure, in the same setting: for GPHLKSKIENGYPLHAPEAYFPYF [P4L] the value was 1.51; for GPHPKSKIENGYPLHAPEAYFNYF [P22N], 1.99; for GPHPKSKIENGYPLHAPEAYFEYF [P22E], 2.22. As to GPHPKSKSENGYPLHAPEAYFPYF [I8S], the protein stability index stood at 2.29. On the same count and under the same terms, for GPHPKSKWENGYPLHAPEAYFPYF [I8W] the value was 1.77.
